According to publication PMC4496674, “Tackling Critical Catalytic Residues in Helicobacter pylori L-Asparaginase” (Biomolecules, 2015):

Experiments:
purified protein [1] = substrate: NC(=O)C[C@H](N)C(=O)O; assay: purified protein; conditions: 50 mM HEPES pH 7.5, 37 °C, hyperbolic
purified protein [2] = substrate: NC(=O)CC[C@H](N)C(=O)O; assay: purified protein; conditions: 50 mM HEPES pH 7.5, 37 °C, sigmoidal, cooperative

B1: HpASNase (Helicobacter pylori 26695) (protein)
chain: MAQNLPTIALLATGGTIAGSGASASLGSYKSGELGIKELLKAIPSLNRLARIQGEQISNIGSQDMNEEVWFKLAKRAQELLDDSRIQGVVITHGTDTLEESAYFLNLVLRSTKPVVLVGAMRNAASLSADGALNLYNAVSVALNEKSANKGVLVVMDDNIFSAREVIKTHTTHTSTFKALNSGAIGSVYYGKTRYYMQPLRKHTTESEFSLSQLKTPLPKVDIIYTHAGMTPDLFQASLNSHAKGVVIAGVGNGNVSAGFLKAMQEASQMGVVIVRSSRVNSGEITSGEIDDKAFITSDNLNPQKARVLLQLALTKTNNKEKIQEMFEEY
K0.5 (purified protein [1]): 0.29 ± 0.03 mM | kcat (purified protein [1]): 19.3 ± 0.56 s⁻¹ | kcat/Km (purified protein [1]): 66400 M⁻¹ s⁻¹ | K0.5 (purified protein [2]): 46.4 ± 4.02 mM | kcat (purified protein [2]): 22.1 ± 1.39 s⁻¹ | kcat/Km (purified protein [2]): 470 ± 100 M⁻¹ s⁻¹
